What was measured:
purified protein [1] = substrate: O=C(O)C(=O)/C=C1/C=C[C@H](O)CC1; assay: purified protein; type: biochemical, Bacillus subtilis; settings: 2 mM NADH (saturating), 50 mM potassium phosphate pH 8.0, 5 µM BacG
purified protein [2] = substrate: O=C(O)C(=O)/C=C1\C=C[C@H](O)CC1; assay: purified protein; type: biochemical, Bacillus subtilis; settings: 2 mM NADH (saturating), 50 mM potassium phosphate pH 8.0, 1 µM BacG

B1: BacG (Bacillus subtilis subsp. subtilis str. 168) (protein)
chain: MSKRTAFVMGASQGIGKAIALKLADQHFSLVINSRNLDNIESVKEDILAKHPEASVIVLAGDMSDQHTRAGIFQKIESQCGRLDVLINNIPGGAPDTFDNCNIEDMTATFTQKTVAYIDAIKRASSLMKQNEFGRIINIVGNLWKEPGANMFTNSMMNAALINASKNISIQLAPHNITVNCLNPGFIATDRYHQFVENVMKKNSISKQKAEEQIASGIPMKRVGSAEETAALAAFLASEEASYITGQQISADGGSMKSI
Purified protein [1]
  kcat: 0.553 s⁻¹
Purified protein [2]
  kcat: 1.19 s⁻¹

Source: paper PMC3448026
